Test results as given in paper PMC13125535, “Reprogramming of bacterial virulence by lysine acetylation” (Nature Communications, 2026).

B1: SnCE1_(104-310) C256A (non-acetylated) (domain or fragment)
chain: GEKDRFLIDERNWLNNQHLGLYSLFLQEKYGPEVFFPFGGWTYVFPGLTDRFFKEDSYHILDVRAKRIKSFLDYKSITYPLFIGGNHWGLLFIDREKRTVEYYDSKINYGNYEEGLQGIKDVAAKFTKYDPGEKPYTYLEKIKKKLQPDGYQAGPWALYFLEHRLENPEVDFNQLDLNEAQNMIAKYRFAVRDKLLELQKNGNTLYC
notes: SnCE1, Simkania negevensis, UniProt F8L4W9, residues 104-310; Not acetylated; no proteolytic processing seen for this truncated protein; not shown: GST, N-terminal, cleaved
B2: SnCE1 C256A AcK209 (domain or fragment)
chain: SLTSKAICRYSLSSVESIQPKTQVKAIEPKGEKDRFLIDERNWLNNQHLGLYSLFLQEKYGPEVFFPFGGWTYVFPGLTDRFFKEDSYHILDVRAKRIKSFLDYKSITYPLFIGGNHWGLLFIDREKRTVEYYDSKINYGNYEEGLQGIKDVAAKFTKYDPGEKPYTYLEKIKKKLQPDGYQAGPWALYFLEHRLENPEVDFNQLDLNEAQNMIAKYRFAVRDKLLELQKNGNTLYC
modifications: acetyl-lysine at 209
notes: SnCE1, Simkania negevensis, UniProt F8L4W9

Target: the molecule itself
Test: SEC; analytical SEC on a calibrated Superdex 200 10/300 GL column; 25 mM Tris-HCl pH 7.5, 150 mM NaCl, 2 mM β-mercaptoethanol; 1.0–2.0 mg/mL protein, 100 µL applied; tetramer to monomers

Row | Protein | stoichiometry N
1 | B1 | 4
2 | B2 | 4
